Test results: patent US20240409663A1 (CONCEPT TO MEDICINE BIOTECH, published 2024)
Substitutions are numbered along the chain they refer to.

B1: 52H5D3B8-6#-VH3+VL3 (antibody, V domains shown)
VH: QVQLVQSGAEVKKPGASVKVSCKALGYTFTDYEMHWVKQAPGQGLEWIGAIHPGSGGTAYNQKFKGRVTLTADTSTSTVYMELSSLRSEDTAVYYCTRYYSYAYWGQGTLVTVSS
VL: DIVMTQTPLSLSVTPGQPASISCRSSQSLVHSNGNTYLQWYLQKPGQSPKLLIYKVSNRFSGVPDRFSGSGSGTDFTLKISRVEAEDVGVYYCFQSIHVPYTFGGGTKLEIK
notes: humanized
B2: 52H5D3B8-6#-VH3+VL4 (antibody, V domains shown)
VH: B1 VH
VL: B1 VL with Y92F
notes: humanized
B3: 52H5D3B8-6#-VH4+VL1 (antibody, V domains shown)
VH: B1 VH with V68A, L70M, T74K, S75F
VL: B1 VL with K50Q
notes: humanized
B4: 52H5D3B8-6#-VH4+VL2 (antibody, V domains shown)
VH: B1 VH with V68A, L70M, T74K, S75F
VL: B1 VL with K50Q, Y92F
notes: humanized
B5: 52H5D3B8-6#-VH4+VL3 (antibody, V domains shown)
VH: B1 VH with V68A, L70M, T74K, S75F
VL: B1 VL
notes: humanized
B6: 52H5D3B8-6#-VH4+VL4 (antibody, V domains shown)
VH: B1 VH with V68A, L70M, T74K, S75F
VL: B1 VL with Y92F
notes: humanized
B7: Hu 52H5D3B8-6 (antibody, V domains shown)
VH: B1 VH with Q1E, L25S, K38R, I48M, L70M, T76I, V79A, S85R, E89D, Y99F
VL: B1 VL with I2V, K50Q, Y92F, F94S, L109V
notes: humanized 52H5D3B8; also called 52H5D3B8 VH2 + VL1
B8: Hu 52H5D3B8-9 (antibody, V domains shown)
VH: B1 VH with Q1E, L25S, K38R, T74K, T76I, V79A, S85R, E89D, Y99F
VL: B1 VL with I2V, K50Q, F94S, L109V
notes: humanized 52H5D3B8; also called 52H5D3B8 VH4 + VL0
B9: Hu 52H5D3B8-2 (antibody, V domains shown)
VH: EVQLVQSGAEVKKPGASVKVSCKASGYTFTDYEMHWVRQAPGQGLEWMGAIHPGSGGTAYNQKFKGRVTMTRDTSISTAYMELSRLRSDDTAVYYCARFYSYAYWGQGTLVTVSS
VL: B1 VL with I2V, K50Q, Y92F, F94S, L109V
notes: humanized 52H5D3B8; also called 52H5D3B8 VH0 + VL1
B10: 18C1D9 chimeric mAb (antibody, V domains shown)
VH: QVQLQQSGAELVRPGASVTLSCKASGYTFSDYEMHWVKQTPVHGLEWIGAIDPETGGTAYNQKFKGKATLTADKSSSTAYMELRSLTSEDSAVYYCTRYYSYAYWGQGTLVTVSA
VL: DVVMTQSPLSLPVSLGDQASISCRSRQSLVHSNGNTYLQWYLQKPGQSPKLLIYKVSNRFSGVPDRFSGSGSGTDFTLKISRVEAEDLGVYFCFQSIHVPYTFGGGTKLEKK
B11: 163E7D12 chimeric mAb (antibody, V domains shown)
VH: B10 VH with S30T, D52G, G57S, K63R, T69I, L70V, Y102F
VL: B10 VL with S7T, D17G, R26S, Y54F, K111I
B12: 172B4E9 chimeric mAb (antibody, V domains shown)
VH: QVQLQQSGAELVRPGASVTLSCKASGYTFTDYEIHWVKQTPVHGLEWIGAIDPATGDTAYTQKFKGKAILTADTSSNTVYMELRGLTSEDSAVHFCTRFYSYAYWGQGTLVTVSA
VL: DVVMTQTPLSLPVSLGDQASISCRSSQSLVHTNGHTYLQWYLQKSGQSPRLLIFKVSNRFSGVPDRFSGSGSGTDFKLKISRVEAEDLGVYFCSQSTHVPYTFGGGTKLEIK
B13: 152E9F7 chimeric mAb (antibody, V domains shown)
VH: B12 VH with A54E, T74K, G85S, H94Y, F95Y
VL: B12 VL with R50K, F54Y, K77T
B14: 171F9C5 chimeric mAb (antibody, V domains shown)
VH: B10 VH with S30T, M34I, G56D, G57N, N61S, T69I
VL: B12 VL with L29P, T32R, H35N, Q39H, S45P, R50K, K77T, E84A, S96T
B15: 52H5D3B8-18#-VH2+VL3 (antibody, V domains shown)
VH: B1 VH with L25S, D31R, K38R, Q62S, L70M
VL: B1 VL with F60Y, F94V, Q95E
B16: 52H5D3B8-19#-VH2+VL3 (antibody, V domains shown)
VH: B1 VH with L25S, D31G, K38R, L70M
VL: B1 VL with S61A, F94V, Q95E
B17: 52H5D3B8-20#-VH2+VL3 (antibody, V domains shown)
VH: B1 VH with L25S, T28R, K38R, K63L, L70M
VL: B1 VL with S61P, F94V, Q95E

Each binder was assayed against T1, human GPC3 on cells (human, UniProt P51654 25-554) (assay: FACS, HEPG2 cells).
T1 construct: whole, on cells; over-expressed on CHOK1 cells or endogenous on HEPG2, Hep3B and Huh-7 hepatocellular carcinoma cells; the cell line is named under assay; also called GPC3-CHOK1 cells; human GPC3 over-expressed CHOK1 cells
Description: (§1) To evaluate the antigen binding property, the humanized antibodies were analyzed for their binding to human GPC3 over-expressed CHOK1 cells, HEPG2 cells, Hep3B cells and Huh-7 cells by FACS. Briefly, GPC3-CHOK1 cells, HEPG2 cells, Hep3B cells and Huh-7 cells were firstly incubated with Fc blocking reagent at 4° C. for 15 mins. Cells were washed by FACS buffer and divided to each well with 4-fold serially diluted humanized antibodies starting at 10 μg/mL at 4° C. for 60 mins. Cells were washed by FACS buffer and fixed with 2% PFA at RT for 15 mins. […] The 16 humanized antibodies were separated into two plates.

| Binder | EC50 [µg/mL] |
| --- | --- |
| B1 | 0.0426 |
| B2 | 0.0422 |
| B3 | 0.04 |
| B4 | 0.0435 |
| B5 | 0.0391 |
| B6 | 0.0367 |

These binders were tested against T1, human GPC3 on cells (assay: FACS, Hep3B cells).
Description: as §1

| Binder | EC50 [µg/mL] |
| --- | --- |
| B1 | 0.0682 |
| B2 | 0.0629 |
| B3 | 0.0565 |
| B4 | 0.0627 |
| B5 | 0.0511 |
| B6 | 0.047 |

What follows are binders tested against T1, human GPC3 on cells (assay: FACS, Huh-7 cells).
Description: as §1

| Binder | EC50 [µg/mL] |
| --- | --- |
| B1 | 0.0351 |
| B2 | 0.0322 |
| B3 | 0.0306 |
| B4 | 0.0326 |
| B5 | 0.0287 |
| B6 | 0.0259 |

Molecular target: T1, human GPC3 on cells
Assay: FACS, Huh-7 cells
Remark: another data set of the same source
Description: as §1, with “CHOK1” for “CHOK1 cells, HEPG2 cells, Hep3B”, “GPC3-CHOK1” for “GPC3-CHOK1 cells, HEPG2 cells, Hep3B”, “As different plates might affect the EC50 of 52H5D3B8-VH+VL, the 12” for “The 16”

| Binder | EC50 [µg/mL] |
| --- | --- |
| B7 | 0.0295 |
| B8 | 0.0348 |
| B9 | 0.0195 |

These binders were tested against T1, human GPC3 on cells (assay: FACS, GPC3-CHOK1 cells).
Description: Cell-based binding: FACS was used to evaluate the binding activity of chimeric mAbs (18C1D9, 52H5D3B8, 163E7D12, 172B4E9, 152E9F7 and 171F9C5) with comparison to a known GPC3 antibody GC33 (Chugai Pharmaceutical) on human GPC3 over-expressed CHOK1 cells.
Briefly, GPC3-CHOK1 cells were washed by FACS buffer and divided to each well with 3-fold serially diluted chimeric mAbs or GC33 mAb starting at 5 μg/mL at 4° C. for 40 mins. […] Samples were washed twice with FACS buffer.

| Binder | EC50 [µg/mL] |
| --- | --- |
| B10 | 0.238 |
| B11 | 0.17 |
| B12 | 0.269 |
| B13 | 0.14 |
| B14 | 0.142 |

Molecular target: T1, human GPC3 on cells
Assay: FACS, GPC3-CHOK1 cells
Remark: another data set of the same source
Description: as §1

| Binder | EC50 [µg/mL] |
| --- | --- |
| B1 | 0.0408 |
| B2 | 0.0419 |
| B3 | 0.0387 |
| B4 | 0.0425 |
| B5 | 0.0379 |
| B6 | 0.0367 |

Molecular target: T1, human GPC3 on cells
Assay: FACS, GPC3-CHOK1 cells
Remark: another data set of the same source
Description: To evaluate the antigen binding property, the affinity maturated antibodies were analyzed for their binding to human GPC3 over-expressed CHOK1 cells by FACS as previously described.

| Binder | EC50 [nM] |
| --- | --- |
| B15 | 0.177 |
| B16 | 0.207 |
| B17 | 0.207 |

The binders below were run against T1, human GPC3 on cells (assay: cell-based or functional assay).

| Binder | EC50 of ADCC signaling (Jurkat-hCD16a-NFAT luciferase reporter), HEPG2 cells [nM] | EC50 of ADCC signaling (Jurkat-hCD16a-NFAT luciferase reporter), Huh-7 cells [nM] |
| --- | --- | --- |
| B15 | 0.202 | 0.48 |
| B16 | 0.0844 | 0.266 |
| B17 | 0.0571 | 0.124 |

Molecular target: T1, human GPC3 on cells
Assay: cell-based or functional assay
Remark: another data set of the same source

| Binder | EC50 of ADCC cytotoxicity (primary NK cells, LDH), HEPG2 cells [nM] | EC50 of ADCC cytotoxicity (primary NK cells, LDH), Huh-7 cells [nM] |
| --- | --- | --- |
| B15 | 0.149 | 0.0826 |
| B16 | 0.0852 | 0.0328 |
| B17 | 0.121 | 0.0287 |

Molecular target: T1, human GPC3 on cells
Assay: FACS, GPC3-CHOK1 cells
Remark: another data set of the same source
Description: as §1, with “CHOK1” for “CHOK1 cells, HEPG2 cells, Hep3B”, “GPC3-CHOK1” for “GPC3-CHOK1 cells, HEPG2 cells, Hep3B”, “As different plates might affect the EC50 of 52H5D3B8-VH+VL, the 12” for “The 16”

| Binder | EC50 [µg/mL] |
| --- | --- |
| B7 | 0.0509 |
| B8 | 0.0572 |
| B9 | 0.0338 |

The binders below were run against T2, human GPC3-his tag protein (human, UniProt P51654 25-559, limits assumed) (assay: SPR Biacore 8K, mAb captured, affinity ranking).
T2 construct: recombinant soluble antigen used as analyte in all Biacore runs; also called recombinant GPC3 protein; rhGPC3-His; not shown: His tag
Description: To evaluate antigen binding activity, the chimeric antibody's affinity was measured by Biacore 8K. A serial dilution of human GPC3-his tag protein was injected over captured chimeric antibody 52H5D3B8-6 #-VH+VL for 3 mins at a flow rate of 30 μl/min. The antigen was allowed to dissociate for 720 s. Among the multi detection doses, two concentrations with most close affinity to the chimeric antibody's affinity were chosen for the 16 humanized antibodies' affinity detection.

| Binder | Kd [nM] | koff [s⁻¹] | kon [M⁻¹ s⁻¹] |
| --- | --- | --- | --- |
| B1 | 0.721 | 0.000514 | 714000 |
| B2 | 0.725 | 0.000516 | 711000 |
| B3 | 1.01 | 0.000646 | 643000 |
| B4 | 1.05 | 0.000674 | 642000 |
| B5 | 0.847 | 0.000601 | 709000 |
| B6 | 0.857 | 0.000593 | 692000 |

Molecular target: T2, human GPC3-his tag protein
Assay: SPR Biacore 8K, mAb captured, affinity ranking
Remark: another data set of the same source
Description: To evaluate antigen binding activity, the chimeric antibody's affinity was measured by Biacore 8K. Two concentrations with most close affinity to the chimeric antibody's affinity were chosen for the 12 humanized antibodies' affinity detection. Human GPC3-his tag protein was injected over captured antibody for 3 mins at a flow rate of 30 μl/min. The antigen was allowed to dissociate for 720 s.

| Binder | Kd [nM] | koff [s⁻¹] | kon [M⁻¹ s⁻¹] |
| --- | --- | --- | --- |
| B7 | 2.94 | 0.000961 | 327000 |
| B8 | 4.18 | 0.00102 | 244000 |
| B9 | 5.71 | 0.00163 | 285000 |

What follows are binders tested against T2, human GPC3-his tag protein (assay: SPR Biacore, mAb captured on CM5, GPC3-his dilution series (full kinetics)).
Description: The binding of the humanized antibodies to recombinant GPC3 protein (human GPC3-his tag) was tested by Biacore using a capture method. 52H5D3B8-6 #-V+VL, 52H5D3B8-6 #-VH1+VL1, 52H5D3B8-6 #-VH1+VL3, 52H5D3B8-6 #-V1+VL4, 52H5D3B8-6 #-VH2+VL4, 52H5D3B8-6 #-VH3+VL1, 52H5D3B8-6 #-VH3+VL3 mAbs were captured using CM5 sensor chip. A serial dilution of human GPC3-his tag protein was injected over captured antibody for 2 mins at a flow rate of […]. The antigen was allowed to dissociate for 360 s. All the experiments were carried out on a Biacore T200.

| Binder | Kd [nM] | koff [s⁻¹] | kon [M⁻¹ s⁻¹] |
| --- | --- | --- | --- |
| B1 | 0.898 | 0.000538 | 600000 |
